± gives the uncertainty stated by the source.
B1: RNA-binding E3 ubiquitin-protein ligase MEX3C, residues 325 to 391; numbered along this chain, Q5U5Q3 (parent)
chain: GQTTVQVRVPYRVVGLVVGPKGATIKRIQQQTHTYIVTPSRDKEPVFEVTGMPENVDRAREEIEMHI

Variants of: B1
Assay: abundance fitness (aPCA) (normalised: wild type 0, dead -1); higher = more abundant; growth selection in yeast, the domain comes from the species named
Conditions: Homo sapiens

Row | Variant | abundance fitness
1 | G22E | -0.389 ± 0.097
2 | G22K | -0.424 ± 0.18
3 | G22C | -0.712 ± 0.2
4 | G22W | -0.687 ± 0.11
5 | G22S | -0.522 ± 0.1
6 | G22F | -0.738 ± 0.33
7 | G22R | -0.504 ± 0.063
8 | G22M | -0.274 ± 0.084
9 | G22Q | -0.189 ± 0.1
10 | G22T | -0.68 ± 0.17
11 | G22L | -0.587 ± 0.11
12 | G22A | -0.489 ± 0.072
13 | G22N | -0.631 ± 0.26
14 | G22D | -0.543 ± 0.15
15 | R27D | -0.656 ± 0.13
16 | R27P | -0.834 ± 0.36
17 | R27T | -0.38 ± 0.17
18 | R27I | -0.901 ± 0.48
19 | R27F | -0.755 ± 0.37
20 | R27M | -0.346 ± 0.19
21 | R27W | -0.241 ± 0.1
22 | R27G | -0.591 ± 0.065
23 | R27N | -0.59 ± 0.17
24 | R27Q | -0.399 ± 0.3

Row | Variant | abundance fitness
25 | R27A | -0.37 ± 0.069
26 | R27S | -0.465 ± 0.1
27 | R27K | 0.111 ± 0.16
28 | R27V | -0.577 ± 0.11
29 | R27C | -0.832 ± 0.25
30 | R27L | -0.665 ± 0.17
31 | R27E | -0.512 ± 0.12
32 | P20M | -0.763 ± 0.17
33 | P20Y | -0.266 ± 0.18
34 | P20S | -0.408 ± 0.078
35 | P20K | -0.026 ± 0.057
36 | P20T | -0.472 ± 0.11
37 | P20C | -0.444 ± 0.12
38 | P20W | -0.625 ± 0.11
39 | P20G | -0.717 ± 0.08
40 | P20L | -0.59 ± 0.094
41 | P20R | -0.039 ± 0.05
42 | P20A | -0.381 ± 0.065
43 | P20E | -0.139 ± 0.076
44 | P20V | -0.449 ± 0.087
45 | P20H | -0.123 ± 0.18
46 | P20I | 0.051 ± 0.24
47 | P20Q | -0.15 ± 0.085
48 | Y35G | -0.511 ± 0.069

Row | Variant | abundance fitness
49 | Y35N | 0.1 ± 0.074
50 | Y35K | 0.284 ± 0.092
51 | Y35M | -0.044 ± 0.1
52 | Y35R | 0.2 ± 0.039
53 | Y35E | -0.041 ± 0.069
54 | Y35H | 0.164 ± 0.084
55 | Y35P | -0.773 ± 0.17
56 | Y35V | 0.129 ± 0.06
57 | Y35A | -0.044 ± 0.064
58 | Y35F | -0.02 ± 0.14
59 | Y35D | -0.283 ± 0.41
60 | Y35W | -0.135 ± 0.067
61 | Y35I | -0.069 ± 0.1
62 | Y35Q | 0.206 ± 0.077
63 | Y35S | 0.15 ± 0.061
64 | Y35C | -0.132 ± 0.098
65 | Y35L | -0.046 ± 0.056
66 | Y35T | 0.307 ± 0.068
67 | T24H | -0.28 ± 0.25
68 | T24E | -0.304 ± 0.091
69 | T24Q | -0.818 ± 0.2
70 | T24M | -0.786 ± 0.43
71 | T24W | -0.553 ± 0.13
72 | T24L | -0.875 ± 0.14

Row | Variant | abundance fitness
73 | T24N | 0.171 ± 0.12
74 | T24S | -0.731 ± 0.13
75 | T24D | -0.67 ± 0.16
76 | T24G | -0.371 ± 0.045
77 | T24R | -0.366 ± 0.051
78 | T24V | -0.517 ± 0.099
79 | T24A | -0.53 ± 0.12
80 | T24P | -1.02 ± 0.21
81 | T24C | -0.574 ± 0.16
82 | T24I | -0.792 ± 0.19
83 | T24K | -0.346 ± 0.12
84 | T24Y | -0.589 ± 0.23
85 | Q30Y | -0.664 ± 0.25
86 | Q30K | -0.016 ± 0.095
87 | Q30T | -0.183 ± 0.11
88 | Q30D | -0.053 ± 0.13
89 | Q30S | -0.435 ± 0.081
90 | Q30R | -0.126 ± 0.047
91 | Q30G | -0.609 ± 0.074
92 | Q30F | -0.773 ± 0.3
93 | Q30C | -0.805 ± 0.27
94 | Q30A | -0.01 ± 0.084
95 | Q30H | -0.23 ± 0.33
96 | Q30M | -0.377 ± 0.094

Row | Variant | abundance fitness
97 | Q30L | -0.505 ± 0.093
98 | Q30P | -0.899 ± 0.21
99 | Q30E | -0.022 ± 0.099
100 | Q30W | -0.566 ± 0.076
101 | Q30V | -0.536 ± 0.12
102 | I25K | -0.754 ± 0.21
103 | I25L | -0.165 ± 0.081
104 | I25R | -0.39 ± 0.069
105 | I25H | -0.62 ± 0.2
106 | I25F | -0.905 ± 0.31
107 | I25E | -0.786 ± 0.14
108 | I25M | -0.571 ± 0.13
109 | I25C | -0.58 ± 0.47
110 | I25P | -0.64 ± 0.35
111 | I25A | -0.811 ± 0.11
112 | I25T | -0.75 ± 0.34
113 | I25G | -0.68 ± 0.062
114 | I25Y | -0.502 ± 0.27
115 | S40C | -0.332 ± 0.093
116 | S40D | 0.138 ± 0.1
117 | S40F | -0.349 ± 0.13
118 | S40E | -0.029 ± 0.1
119 | S40A | 0.021 ± 0.067
120 | P39G | -0.467 ± 0.07

Row | Variant | abundance fitness
121 | P39Q | -0.477 ± 0.12
122 | P39M | -0.502 ± 0.12
123 | P39V | -0.476 ± 0.074
124 | P39A | -0.497 ± 0.079
125 | P39N | -0.234 ± 0.16
126 | P39I | -0.57 ± 0.24
127 | P39T | -0.409 ± 0.089
128 | P39F | -0.286 ± 0.14
129 | P39H | -0.402 ± 0.17
130 | P39R | -0.276 ± 0.059
131 | P39W | -0.58 ± 0.11
132 | P39C | -0.221 ± 0.13
133 | P39K | -0.149 ± 0.078
134 | P39E | -0.424 ± 0.088
135 | P39Y | -0.328 ± 0.26
136 | P39D | -0.383 ± 0.11
137 | T32D | -0.575 ± 0.12
138 | T32E | -0.707 ± 0.15
139 | T32M | -0.653 ± 0.2
140 | T32R | -0.938 ± 0.14
141 | T32H | -0.488 ± 0.17
142 | T32V | -0.682 ± 0.084
143 | T32Y | -0.777 ± 0.25
144 | T32I | -0.944 ± 0.23

Row | Variant | abundance fitness
145 | T32P | -0.654 ± 0.15
146 | T32Q | -0.669 ± 0.17
147 | T32L | -0.734 ± 0.11
148 | T32W | -0.916 ± 0.19
149 | T32C | -0.578 ± 0.17
150 | T32A | -0.712 ± 0.12
151 | K26S | -0.483 ± 0.14
152 | K26Y | -0.944 ± 0.34
153 | K26F | -0.786 ± 0.27
154 | K26V | -0.747 ± 0.11
155 | K26D | -0.417 ± 0.15
156 | K26R | -0.126 ± 0.054
157 | K26M | -0.212 ± 0.15
158 | K26P | -0.56 ± 0.14
159 | K26N | -0.491 ± 0.15
160 | K26H | -0.66 ± 0.22
161 | K26A | -0.119 ± 0.06
162 | K26G | -0.769 ± 0.1
163 | K26Q | -0.343 ± 0.14
164 | K26T | -0.61 ± 0.14
165 | K26C | -0.911 ± 0.34
166 | K26W | -0.722 ± 0.12
167 | K26L | -0.655 ± 0.11

Reference: the Human Domainome abundance scans (Beltran et al. 2025)
